Laboratory results taken from patent US20110201077.

Tested on: recombinant streptokinase produced with the pET21b expression construct (double-mutant, plasmin-resistant, polyhistidine-tagged)

Substance | streptokinase proteolysis followed by Western blot, 1:1 mole ratio (data not shown) | conversion of recombinant plasminogen to recombinant plasmin, time course on reducing SDS-PAGE, 100:1 mole ratio plasminogen:streptokinase
recombinant plasmin | a very stable streptokinase fragment was generated, even at t=18 hours into the reaction | –
recombinant plasminogen | – | At t=18 hours into the reaction, nearly all of the recombinant plasminogen had been converted to recombinant plasmin
